Laboratory results as given in IntAct's records for PubMed 27978489.

B1: T-cell immunoreceptor with Ig and ITIM domains (Homo sapiens), Q495A1 (parent)
chain: MRWCLLLIWAQGLRQAPLASGMMTGTIETTGNISAEKGGSIILQCHLSSTTAQVTQVNWEQQDQLLAICNADLGWHISPSFKDRVAPGPGLGLTLQSLTVNDTGEYFCIYHTYPDGTYTGRIFLEVLESSVAEHGARFQIPLLGAMAATLVVICTAVIVVVALTRKKKALRIHSVEGDLRRKSAGQEEWSPSAPSPPGSCVQAEAAPAGLCGEQRGEDCAELHDYFNVLSYRSLGNCSFFTETG

Variants of: B1
Details: with nect2_human NECTIN2, Q92692
Chain of nect2_human NECTIN2, Q92692 (Q92692 whole entry): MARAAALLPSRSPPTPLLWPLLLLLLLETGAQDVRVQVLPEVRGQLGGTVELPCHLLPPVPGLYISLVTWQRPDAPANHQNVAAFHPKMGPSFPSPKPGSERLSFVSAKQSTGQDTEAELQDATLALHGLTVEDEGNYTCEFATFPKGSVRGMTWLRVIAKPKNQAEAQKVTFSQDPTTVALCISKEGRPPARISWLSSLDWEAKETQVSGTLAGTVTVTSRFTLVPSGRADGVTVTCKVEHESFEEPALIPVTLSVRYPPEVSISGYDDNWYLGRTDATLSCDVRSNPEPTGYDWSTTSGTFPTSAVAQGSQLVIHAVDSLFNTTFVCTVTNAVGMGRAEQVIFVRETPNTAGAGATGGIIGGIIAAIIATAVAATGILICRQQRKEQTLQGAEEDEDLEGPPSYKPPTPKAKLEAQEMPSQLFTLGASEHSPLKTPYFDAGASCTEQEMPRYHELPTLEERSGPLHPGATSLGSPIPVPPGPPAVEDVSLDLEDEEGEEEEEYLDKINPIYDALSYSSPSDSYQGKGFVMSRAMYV

Variant	effect of a mutation on the interaction
Y113A	decreasing interaction strength
T112A	decreasing interaction strength
P114A	decreasing interaction strength
